# ± gives the half width of the 95% confidence interval.
# Assay: folding stability dG unfold from chymotrypsin proteolysis; higher = more stable
# How it was run: (§1)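 Designed mini-proteins (under 80 residues, no cysteine) in a PA-tagged cDNA display construct were digested with trypsin and chymotrypsin. Each protease was used at 11 concentrations (threefold dilutions) plus a no-protease condition, followed by sequencing. K50 was inferred by Bayesian fitting of sequencing counts, and unfolding free energy was derived against a sequence-predicted unfolded-state K50 and a shared folded-state K50, per protease or combined. Only designs with AlphaFold2 dimer inter-PAE above 15 were kept.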
row,Sequence,folding stability dG unfold [kcal/mol]
1,SAGGMEEIVKALPPEAGVVEIESEPLPLEDSILRRYRLRVYNPATGKWEELEVLIEYDKDGNIRRIVASAGG [r13_358_TrMRF],3.94 ± 0.051
2,SAGGSAGGSAGGYLEAPIVIKIEFQIYDPDDGDPIATYEHTIMIPIEIELPPPPDPDNDSAGGSAGGSAGGS [r10_50_TrROS],2.28 ± 0.17
3,SAGGSAGGSMEVTYDEETGELTVRIEVDGKTLTLKFKSIEDLKAALEKLGIDVDDVKIVEIEPSAGGSAGGS [r12_834_TrROS_Hall],4.75 ± 0.089
4,SAGGSLSNVTPLGTTPVTLPGSTVTITVYKSDTPGVVYVKIEYPETGVEKVRVLSPEELEKVIEELLSAGGS [r8_469_JUSTAS],3.199 ± 0.025
5,SAGGSSIKVTITDKNGNEYEIEIPSSLSLEEAKEKVKEYLEKKGYKVESITVENLPPGEAEIKVLKSAGGSA [r2_148_JUSTAS],0.465 ± 0.21
6,STLPPGATRTFEFTDPATGKKITVTLTRLPDGTVRVTLTTTDPATGKTTTETFTLPGETLEALLALVEESSA [r9_618_JUSTAS],4.86 ± 0.12
7,SAGMPVITTTEELPGGLTVTTTTYPPGDTTTTVTSPEGNVTTTTTTTTPTPTPTTTTTTTTTTTPVPPASAG [r5_944_JUSTAS],1.26 ± 0.099
8,SAGGSAGGSAGGGPDATPVTTTYVDLNLTPVSTETDPETGAVTVTYKLPGETITVTLPASAGGSAGGSAGGS [r10_962_JUSTAS],1.11 ± 0.42
9,SAGGSAGGSAGGSDKGQPRVEIPMPFFMPNPNYVIRITMEIDLDPNGQIREIDVEVYKFSAGGSAGGSAGGS [r4_75_TrROS],4.67 ± 0.1
10,SAGGSAGGSKKKKVIEIKISEEELKKLGLTKEEIAKKLAEKFPNIKKNVRIEKNKDGTLKIYVSAGGSAGGS [r12_50_TrROS_Hall],1.27 ± 0.092
11,SAGGSAGGSMLEEKIKQVPKSEKATITIKVKNENGKWKVVTVEVTYIEGKNEYEVKITITPEPGSAGGSAGG [r6_545_JUSTAS],3.04 ± 0.18
12,SAGGMKIGVLLPKSIPPEKAEEFLKKLNPDLEVEYRPVEPGSLKDIPPEIEVIVLPADDDFALALVKPSAGG [r13_649_TrMRF],-0.401 ± 0.12
13,SAGGSEAIKEALELAKENPGKTVEVEIKNEDGSIYKIKIEVKEGKVVKVEVEKVKKEEVLSEEEKKSAGGSA [r2_263_TrROS_Hall],2.49 ± 0.043
14,KRVTIMFNFPPGKPLPLSELAGFARNSGGEVKIQIYNPDDGKWQEITFPGGKIDDVEMFPDGWMVMITVKGS [r1_238_TrROS],2.83 ± 0.089
15,SAGGAVYRNPATGEWYEPGMTEEEREARARAALPPPTVTITVTVTVVFEDNGTTVTATATVTLTVEGSAGGS [r16_387_TrROS_Hall],3.83 ± 0.12
16,SAGGTLKVTEEEVSESEFESPGLPLRRTTTTYTLVDPVTGKPVPTSKKVTVETLETPEGRVLETVVTSSAGG [r13_24_JUSTAS],0.0434 ± 0.14
17,SAGGSAGGSAGSSLPVLETREEGDLVYLLFPETNLLLVVRRGPGEVEVPSAVRVPPDVPLSAGGSAGGSAGG [r17_30_JUSTAS],1.03 ± 0.047
18,SAGGSAGGSDPTAPVITTVPFPSGAVLTITTYPDSVTITYPSPGTTYTVPASAPIPITYQPALSAGGSAGGS [r12_227_JUSTAS],0.0869 ± 0.12
19,SAGTIRLNGLELEVDIEWWPEHGYITINVTITWPNGRTMMMQIIIKVKPVKPPPPPPPKYDPDNGKPKASAG [r5_816_TrROS],4.38 ± 0.25
20,SAGGSAGGSAGPSDDVKPYEVEAEFLIPGTGERVRVRAEVYTLDEEKGLALVRVEVEPVLSAGGSAGGSAGG [r11_1029_TrMRF],2.88 ± 0.054
21,SAGGATIEIKELGRDEDTWYFLVTDPGSAEAVKDFIEKFIPPDYDAKIKILSVDPETGKVTALIEIPGSAGG [r13_491_TrMRF],2.69 ± 0.14

# Assay: folding stability dG unfold (combined trypsin and chymotrypsin); higher = more stable
# How it was run: as §1
row,Sequence,folding stability dG unfold [kcal/mol]
1,SAGGMKLKPVKEGEEIEIELEIVDKETKKVYKVKAKITVVKDKETKEYYVKIEIENPETGEKYTFLLKSAGG [r13_262_TrROS_Hall],2.21 ± 0.36
2,SAGGKLIIVIEVNGETIEVDLEEAETLEEAIQKVLDEIRERFPEIGTVRIKVFDEKGKLIKEIEIKLKSAGG [r13_257_TrROS_Hall],3.51 ± 0.17
3,MVITPEEVAEMLGVSPEELAALPLEELAQRILEVLPAGVATSVTVERDPARGTTTITVTLSDGKNIDVTLES [r1_340_JUSTAS],> 6
4,SAGGSAKTVSIWIPDDLPNMPIEELIKEVMKAFPPGDEIKDIDVEPWPNGGYMYTFTVNGKEVIIWSAGGSA [r15_451_TrROS],1.78 ± 0.17
5,SAGGSAGGSMKKIKIEVYNKDGSKTELPLSEILKLYDFDAEEIKKFLEKLFPKDVKFKIEIEGSAGGSAGGS [r12_399_TrMRF],2.31 ± 0.17
6,SAGGSAGGSLKPGQPYIMIRIKIQHPNGNTRTFNIMVPWNDIPQILDFLESHGFKIKDIEIFPSAGGSAGGS [r12_986_TrROS],5.09 ± 0.2
7,SAGGSAGGSAGGKDPYLALKTVRVRLVRDYLLGDKPVKTELIEEADVPVLIVFEPEELLSAGGSAGGSAGGS [r10_492_TrMRF],0.441 ± 0.053
8,SAGGEVKPGEEVEVEVLVLVRGEDGELYLVRVKMRFRVKEDGTVEMEVEVEVVRVPLSEEELKALLEASAGG [r13_544_TrROS_Hall],> 6
9,SAGGYKITIPAMFDTPEDALDQVREIARSLGYRITDIKNVEVHKHEDNGMVMVEATIKIEPLPKGQLSAGGS [r16_155_TrROS],1.97 ± 0.12
10,SMPLPFEATVTVPVRDEETGETYTVTVKVEAVNPAVPRPLPDGSIEYEPIPLETVLEIVEKAAEELAKALSA [r9_698_TrMRF],1.56 ± 0.14
11,SAGGLKEIAKQLGPGADKVEIEWEPQPHDDMEMYRWKIRVKNPNNGKKRKLEVSIMYDPNGNIRSIMISAGG [r13_358_TrROS],2.34 ± 0.14
12,SAGGSAGGSAHKITITLPNGNPPEIVVEFETEEEAKEKAEEIIKKLEEEGYPKENLTVTIEKESAGGSAGGS [r12_295_JUSTAS],1.86 ± 0.12
13,SAGGMETIELEIEITDEDGNTYRIRVTIERKDGKLVIKIEVEAETPEERERARELAEELARRLEEELSAGGS [r8_416_TrROS_Hall],4.94 ± 0.6
14,SAGGSAGGSAGGSMSSTVTTTLVEVGPPNGKRVLVRRTTTTFPDGSVTTTVTVLSTTIASAGGSAGGSAGGS [r4_496_JUSTAS],2.37 ± 0.063
15,SAGGSAGGNKSYTVIIRFPMKRKEDPDGEDKKPRPVTIEYTVKSPEDANELKNKLKDNGAEIVPSAGGSAGG [r6_141_TrROS],0.531 ± 0.12
16,SAGGSAGGSSKNGKPKPTIKVEMPDKPGPHEIPIPESDPDEAKTLAEELAQKWPGVPVRIEPTSAGGSAGGS [r12_601_TrROS],0.582 ± 0.13
17,SAGGPGFQRYPYTLELPDGRKITVEYWRMGDNPYVQIDIRHDGEPLGTIHVPVPSPDQIEDAAKDIISAGGS [r16_55_TrROS],1.58 ± 0.072
18,SAGGPLTLEFTLPNGDEVGDVTVEPLPDDSYIVTVVAEDKDRPGVYYVSLVRIPPTDRTLEVVSGPVYSAGG [r13_370_TrMRF],1.2 ± 0.064
19,SAGKVKLTIMIHPMRKNGKPRYYVMVKIEIPGGPKAEIMFPFDSPEQAKNLLEDLGLKVEPEDISIMRWSAG [r5_233_TrROS],1.94 ± 0.051
20,SAGGSAGGIKEILKEARENPENAESVTIRIPMEVPVTRYDPDNGEPETHPHPVPGEITIPPDDLSAGGSAGG [r6_560_TrROS],0.889 ± 0.051
21,SMKVYVKVLPPEYAVAYIYTDKKYEIPIPTTDLEEARAQIEEIVNEIEKRTGVKAEVEITEVAPDTKIPLSA [r9_786_JUSTAS],0.74 ± 0.22

row,Sequence,folding stability dG unfold [kcal/mol]
1,SAGGMEEIVKALPPEAGVVEIESEPLPLEDSILRRYRLRVYNPATGKWEELEVLIEYDKDGNIRRIVASAGG [r13_358_TrMRF],3.6 ± 0.2
2,SAGGSAGGSAGGYLEAPIVIKIEFQIYDPDDGDPIATYEHTIMIPIEIELPPPPDPDNDSAGGSAGGSAGGS [r10_50_TrROS],2.18 ± 0.23
3,SAGGSAGGSMEVTYDEETGELTVRIEVDGKTLTLKFKSIEDLKAALEKLGIDVDDVKIVEIEPSAGGSAGGS [r12_834_TrROS_Hall],4.67 ± 0.14
4,SAGGSLSNVTPLGTTPVTLPGSTVTITVYKSDTPGVVYVKIEYPETGVEKVRVLSPEELEKVIEELLSAGGS [r8_469_JUSTAS],3.07 ± 0.054
5,SAGGSSIKVTITDKNGNEYEIEIPSSLSLEEAKEKVKEYLEKKGYKVESITVENLPPGEAEIKVLKSAGGSA [r2_148_JUSTAS],0.423 ± 0.29
6,STLPPGATRTFEFTDPATGKKITVTLTRLPDGTVRVTLTTTDPATGKTTTETFTLPGETLEALLALVEESSA [r9_618_JUSTAS],4.68 ± 0.16
7,SAGMPVITTTEELPGGLTVTTTTYPPGDTTTTVTSPEGNVTTTTTTTTPTPTPTTTTTTTTTTTPVPPASAG [r5_944_JUSTAS],1.44 ± 0.26
8,SAGGSAGGSAGGGPDATPVTTTYVDLNLTPVSTETDPETGAVTVTYKLPGETITVTLPASAGGSAGGSAGGS [r10_962_JUSTAS],0.573 ± 0.22
9,SAGGSAGGSAGGSDKGQPRVEIPMPFFMPNPNYVIRITMEIDLDPNGQIREIDVEVYKFSAGGSAGGSAGGS [r4_75_TrROS],4.08 ± 0.14
10,SAGGSAGGSKKKKVIEIKISEEELKKLGLTKEEIAKKLAEKFPNIKKNVRIEKNKDGTLKIYVSAGGSAGGS [r12_50_TrROS_Hall],1.18 ± 0.31
11,SAGGSAGGSMLEEKIKQVPKSEKATITIKVKNENGKWKVVTVEVTYIEGKNEYEVKITITPEPGSAGGSAGG [r6_545_JUSTAS],2.29 ± 0.3
12,SAGGMKIGVLLPKSIPPEKAEEFLKKLNPDLEVEYRPVEPGSLKDIPPEIEVIVLPADDDFALALVKPSAGG [r13_649_TrMRF],0.00463 ± 0.11
13,SAGGSEAIKEALELAKENPGKTVEVEIKNEDGSIYKIKIEVKEGKVVKVEVEKVKKEEVLSEEEKKSAGGSA [r2_263_TrROS_Hall],2.12 ± 0.1
14,KRVTIMFNFPPGKPLPLSELAGFARNSGGEVKIQIYNPDDGKWQEITFPGGKIDDVEMFPDGWMVMITVKGS [r1_238_TrROS],2.52 ± 0.15
15,SAGGAVYRNPATGEWYEPGMTEEEREARARAALPPPTVTITVTVTVVFEDNGTTVTATATVTLTVEGSAGGS [r16_387_TrROS_Hall],3.44 ± 0.1
16,SAGGTLKVTEEEVSESEFESPGLPLRRTTTTYTLVDPVTGKPVPTSKKVTVETLETPEGRVLETVVTSSAGG [r13_24_JUSTAS],-0.0697 ± 0.13
17,SAGGSAGGSAGSSLPVLETREEGDLVYLLFPETNLLLVVRRGPGEVEVPSAVRVPPDVPLSAGGSAGGSAGG [r17_30_JUSTAS],0.958 ± 0.063
18,SAGGSAGGSDPTAPVITTVPFPSGAVLTITTYPDSVTITYPSPGTTYTVPASAPIPITYQPALSAGGSAGGS [r12_227_JUSTAS],0.488 ± 0.067
19,SAGTIRLNGLELEVDIEWWPEHGYITINVTITWPNGRTMMMQIIIKVKPVKPPPPPPPKYDPDNGKPKASAG [r5_816_TrROS],3.68 ± 0.34
20,SAGGSAGGSAGPSDDVKPYEVEAEFLIPGTGERVRVRAEVYTLDEEKGLALVRVEVEPVLSAGGSAGGSAGG [r11_1029_TrMRF],2.41 ± 0.18
21,SAGGATIEIKELGRDEDTWYFLVTDPGSAEAVKDFIEKFIPPDYDAKIKILSVDPETGKVTALIEIPGSAGG [r13_491_TrMRF],2.64 ± 0.15

# — the supplement of paper PMC12764529
